For this test, the target named is ERBB2 (Homo sapiens (Human), UniProt P04626). The test can be described thus: SPR (ErbB-Fc on chip, avid).

The text below walks through data of PMC6071530 (2018).

A word on the Kd: it is the free concentration of one partner at which half of the binding sites on the other are occupied at equilibrium, for simple one-to-one binding. A lower Kd goes with higher affinity.

B1: S100A4 (protein)
chain 1: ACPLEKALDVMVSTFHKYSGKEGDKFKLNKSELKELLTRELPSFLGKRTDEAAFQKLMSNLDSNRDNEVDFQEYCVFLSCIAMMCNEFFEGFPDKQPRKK
chain 2: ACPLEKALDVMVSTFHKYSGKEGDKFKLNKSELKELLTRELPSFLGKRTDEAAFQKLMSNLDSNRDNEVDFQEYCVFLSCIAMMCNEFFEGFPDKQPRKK
In the case of B1, the Kd was over 1.25 µM.
